Results from publication PMC2164975.

Target: GST-QM fusion protein, full-length QM (human) (UniProt P27635)
Experiment: pull-down

normal full-length PS1, in vitro translated and radiolabeled with [35S]methionine (from UniProt P49768 1-467) (natural protein)
ratio between the input and the pulled-down amounts: 95%
